According to FireProtDB (doi:10.1006/jmbi.2001.4993):

Settings: Equus caballus, pH 7, 10 °C, GdnHCl, sodium dithionite 0.5-2 mM, reversible: yes

Cytochrome c wild type, P00004, sequence (P00004 whole entry): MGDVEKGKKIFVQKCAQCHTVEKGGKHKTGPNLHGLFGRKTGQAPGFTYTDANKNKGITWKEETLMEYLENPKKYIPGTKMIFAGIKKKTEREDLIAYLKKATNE

## Cytochrome c wild type, P00004
Absorbance
  denaturant midpoint (higher = more stable): 5.1 M
  unfolding free energy: 18.8 kcal/mol
Absorbance, transition: 3
  denaturant midpoint (higher = more stable): 5.01 M
Fluorescence
  denaturant midpoint (higher = more stable): 5.1 M
  unfolding free energy: 18.8 kcal/mol
Fluorescence, transition: 3
  denaturant midpoint (higher = more stable): 5.02 M
